Data published in patent US20260063625A1, “COMPOSITIONS FOR AND METHODS OF DETECTING FOOD TOXINS” (priority 2022, published 2026).

B1: E540Q: RcSxph mutant E540Q (protein)
chain: MAPTFQTALFFTIISLSFAAPNAKQVRWCAISDLEQKKCNDLVGSCNVPDITLVCVLRSSTEDCMTAIKDGQADAMFLDSGEVYEASKDPYNLKPIIAEPYSSNRDLQKCLKERQQALAKKMIGHYIPQCDEKGNYQPQQCHGSTGHCWCVNAMGEKISGTNTPPGQTRATCERHELPKCLKERQVALGGDEKVLGRFVPQCDEKGNYEPQQFHGSTGYSWCVNAIGEEIAGTKTPPGKIPATCQKHDLVTTCHYAVAMVKKSSAFQFNQLKGKRSCHSGVSKTDGWKALVTVLVEKKLLSWDGPAKESIQRAMSKFFSVSCIPGATQTNLCKQCKGEEGKNCKNSHDEPYYGNYGAFRCLKEDMGDVAFLRSTALSDEHSEVYELLCPDNTRKPLNKYKECNLGTVPAGTVVTRKISDKTEDINNFLMEAQKRQCKLFSSAHGKDLMFDDSTLQLALLSSEVDAFLYLGVKLFHAMKALTGDAHLPSKNKVRWCTINKLEKMKCDDWSAVSGGAIACTEASCPKGCVKQILKGEADAVKLEVQYMYEALMCGLLPAVQEYHNKDDFGPCKTPGSPYTDFGTLRAVALVKKSNKDINWNNIKGKKSCHTGVGDIAGWVIPVSLIRRQNDNSDIDSFFGESCAPGSDTKSNLCKLCIGDPKNSAANTKCSLSDKEAYYGNQGAFRCLVEKGDVAFVPHTVVFENTDGKNPAVWAKNLKSEDFELLCLDGSRAPVSNYKSCKLSGIPPPAIVTREESISDVVRIVANQQSLYGRKGFEKDMFQLFSSNKGNNLLFNDNTQCLITFDRQPKDIMEDYFGKPYYTTVYGASRSAMSSELISACTIKHC
B2: F784S: RcSxph mutant F784S (protein)
chain: MAPTFQTALFFTIISLSFAAPNAKQVRWCAISDLEQKKCNDLVGSCNVPDITLVCVLRSSTEDCMTAIKDGQADAMFLDSGEVYEASKDPYNLKPIIAEPYSSNRDLQKCLKERQQALAKKMIGHYIPQCDEKGNYQPQQCHGSTGHCWCVNAMGEKISGTNTPPGQTRATCERHELPKCLKERQVALGGDEKVLGRFVPQCDEKGNYEPQQFHGSTGYSWCVNAIGEEIAGTKTPPGKIPATCQKHDLVTTCHYAVAMVKKSSAFQFNQLKGKRSCHSGVSKTDGWKALVTVLVEKKLLSWDGPAKESIQRAMSKFFSVSCIPGATQTNLCKQCKGEEGKNCKNSHDEPYYGNYGAFRCLKEDMGDVAFLRSTALSDEHSEVYELLCPDNTRKPLNKYKECNLGTVPAGTVVTRKISDKTEDINNFLMEAQKRQCKLFSSAHGKDLMFDDSTLQLALLSSEVDAFLYLGVKLFHAMKALTGDAHLPSKNKVRWCTINKLEKMKCDDWSAVSGGAIACTEASCPKGCVKQILKGEADAVKLEVQYMYEALMCGLLPAVEEYHNKDDFGPCKTPGSPYTDFGTLRAVALVKKSNKDINWNNIKGKKSCHTGVGDIAGWVIPVSLIRRQNDNSDIDSFFGESCAPGSDTKSNLCKLCIGDPKNSAANTKCSLSDKEAYYGNQGAFRCLVEKGDVAFVPHTVVFENTDGKNPAVWAKNLKSEDFELLCLDGSRAPVSNYKSCKLSGIPPPAIVTREESISDVVRIVANQQSLYGRKGFEKDMFQLFSSNKGNNLLFNDNTQCLITSDRQPKDIMEDYFGKPYYTTVYGASRSAMSSELISACTIKHC
B3: F784C: RcSxph mutant F784C (protein)
chain: MAPTFQTALFFTIISLSFAAPNAKQVRWCAISDLEQKKCNDLVGSCNVPDITLVCVLRSSTEDCMTAIKDGQADAMFLDSGEVYEASKDPYNLKPIIAEPYSSNRDLQKCLKERQQALAKKMIGHYIPQCDEKGNYQPQQCHGSTGHCWCVNAMGEKISGTNTPPGQTRATCERHELPKCLKERQVALGGDEKVLGRFVPQCDEKGNYEPQQFHGSTGYSWCVNAIGEEIAGTKTPPGKIPATCQKHDLVTTCHYAVAMVKKSSAFQFNQLKGKRSCHSGVSKTDGWKALVTVLVEKKLLSWDGPAKESIQRAMSKFFSVSCIPGATQTNLCKQCKGEEGKNCKNSHDEPYYGNYGAFRCLKEDMGDVAFLRSTALSDEHSEVYELLCPDNTRKPLNKYKECNLGTVPAGTVVTRKISDKTEDINNFLMEAQKRQCKLFSSAHGKDLMFDDSTLQLALLSSEVDAFLYLGVKLFHAMKALTGDAHLPSKNKVRWCTINKLEKMKCDDWSAVSGGAIACTEASCPKGCVKQILKGEADAVKLEVQYMYEALMCGLLPAVEEYHNKDDFGPCKTPGSPYTDFGTLRAVALVKKSNKDINWNNIKGKKSCHTGVGDIAGWVIPVSLIRRQNDNSDIDSFFGESCAPGSDTKSNLCKLCIGDPKNSAANTKCSLSDKEAYYGNQGAFRCLVEKGDVAFVPHTVVFENTDGKNPAVWAKNLKSEDFELLCLDGSRAPVSNYKSCKLSGIPPPAIVTREESISDVVRIVANQQSLYGRKGFEKDMFQLFSSNKGNNLLFNDNTQCLITCDRQPKDIMEDYFGKPYYTTVYGASRSAMSSELISACTIKHC
B4: D794N: RcSxph mutant D794N (protein)
chain: MAPTFQTALFFTIISLSFAAPNAKQVRWCAISDLEQKKCNDLVGSCNVPDITLVCVLRSSTEDCMTAIKDGQADAMFLDSGEVYEASKDPYNLKPIIAEPYSSNRDLQKCLKERQQALAKKMIGHYIPQCDEKGNYQPQQCHGSTGHCWCVNAMGEKISGTNTPPGQTRATCERHELPKCLKERQVALGGDEKVLGRFVPQCDEKGNYEPQQFHGSTGYSWCVNAIGEEIAGTKTPPGKIPATCQKHDLVTTCHYAVAMVKKSSAFQFNQLKGKRSCHSGVSKTDGWKALVTVLVEKKLLSWDGPAKESIQRAMSKFFSVSCIPGATQTNLCKQCKGEEGKNCKNSHDEPYYGNYGAFRCLKEDMGDVAFLRSTALSDEHSEVYELLCPDNTRKPLNKYKECNLGTVPAGTVVTRKISDKTEDINNFLMEAQKRQCKLFSSAHGKDLMFDDSTLQLALLSSEVDAFLYLGVKLFHAMKALTGDAHLPSKNKVRWCTINKLEKMKCDDWSAVSGGAIACTEASCPKGCVKQILKGEADAVKLEVQYMYEALMCGLLPAVEEYHNKDDFGPCKTPGSPYTDFGTLRAVALVKKSNKDINWNNIKGKKSCHTGVGDIAGWVIPVSLIRRQNDNSDIDSFFGESCAPGSDTKSNLCKLCIGDPKNSAANTKCSLSDKEAYYGNQGAFRCLVEKGDVAFVPHTVVFENTDGKNPAVWAKNLKSEDFELLCLDGSRAPVSNYKSCKLSGIPPPAIVTREESISDVVRIVANQQSLYGRKGFEKDMFQLFSSNKGNNLLFNDNTQCLITFDRQPKDIMENYFGKPYYTTVYGASRSAMSSELISACTIKHC
B5: F784Y: RcSxph mutant F784Y (protein)
chain: MAPTFQTALFFTIISLSFAAPNAKQVRWCAISDLEQKKCNDLVGSCNVPDITLVCVLRSSTEDCMTAIKDGQADAMFLDSGEVYEASKDPYNLKPIIAEPYSSNRDLQKCLKERQQALAKKMIGHYIPQCDEKGNYQPQQCHGSTGHCWCVNAMGEKISGTNTPPGQTRATCERHELPKCLKERQVALGGDEKVLGRFVPQCDEKGNYEPQQFHGSTGYSWCVNAIGEEIAGTKTPPGKIPATCQKHDLVTTCHYAVAMVKKSSAFQFNQLKGKRSCHSGVSKTDGWKALVTVLVEKKLLSWDGPAKESIQRAMSKFFSVSCIPGATQTNLCKQCKGEEGKNCKNSHDEPYYGNYGAFRCLKEDMGDVAFLRSTALSDEHSEVYELLCPDNTRKPLNKYKECNLGTVPAGTVVTRKISDKTEDINNFLMEAQKRQCKLFSSAHGKDLMFDDSTLQLALLSSEVDAFLYLGVKLFHAMKALTGDAHLPSKNKVRWCTINKLEKMKCDDWSAVSGGAIACTEASCPKGCVKQILKGEADAVKLEVQYMYEALMCGLLPAVEEYHNKDDFGPCKTPGSPYTDFGTLRAVALVKKSNKDINWNNIKGKKSCHTGVGDIAGWVIPVSLIRRQNDNSDIDSFFGESCAPGSDTKSNLCKLCIGDPKNSAANTKCSLSDKEAYYGNQGAFRCLVEKGDVAFVPHTVVFENTDGKNPAVWAKNLKSEDFELLCLDGSRAPVSNYKSCKLSGIPPPAIVTREESISDVVRIVANQQSLYGRKGFEKDMFQLFSSNKGNNLLFNDNTQCLITYDRQPKDIMEDYFGKPYYTTVYGASRSAMSSELISACTIKHC
B6: F784L: RcSxph mutant F784L (protein)
chain: MAPTFQTALFFTIISLSFAAPNAKQVRWCAISDLEQKKCNDLVGSCNVPDITLVCVLRSSTEDCMTAIKDGQADAMFLDSGEVYEASKDPYNLKPIIAEPYSSNRDLQKCLKERQQALAKKMIGHYIPQCDEKGNYQPQQCHGSTGHCWCVNAMGEKISGTNTPPGQTRATCERHELPKCLKERQVALGGDEKVLGRFVPQCDEKGNYEPQQFHGSTGYSWCVNAIGEEIAGTKTPPGKIPATCQKHDLVTTCHYAVAMVKKSSAFQFNQLKGKRSCHSGVSKTDGWKALVTVLVEKKLLSWDGPAKESIQRAMSKFFSVSCIPGATQTNLCKQCKGEEGKNCKNSHDEPYYGNYGAFRCLKEDMGDVAFLRSTALSDEHSEVYELLCPDNTRKPLNKYKECNLGTVPAGTVVTRKISDKTEDINNFLMEAQKRQCKLFSSAHGKDLMFDDSTLQLALLSSEVDAFLYLGVKLFHAMKALTGDAHLPSKNKVRWCTINKLEKMKCDDWSAVSGGAIACTEASCPKGCVKQILKGEADAVKLEVQYMYEALMCGLLPAVEEYHNKDDFGPCKTPGSPYTDFGTLRAVALVKKSNKDINWNNIKGKKSCHTGVGDIAGWVIPVSLIRRQNDNSDIDSFFGESCAPGSDTKSNLCKLCIGDPKNSAANTKCSLSDKEAYYGNQGAFRCLVEKGDVAFVPHTVVFENTDGKNPAVWAKNLKSEDFELLCLDGSRAPVSNYKSCKLSGIPPPAIVTREESISDVVRIVANQQSLYGRKGFEKDMFQLFSSNKGNNLLFNDNTQCLITLDRQPKDIMEDYFGKPYYTTVYGASRSAMSSELISACTIKHC

Experiment: Fluorescence polarization (FP) binding to fluorescein labeled STX
Settings: […]G = RT ln (KdSxph mutant/KdSxph); T = 298K
Method: […]; Measurements were performed at 25° C. on a Synergy H1 microplate reader (BioTek) using the polarization filter setting (excitation 485 nm, emission 528 nm). […]. The dissociation constants were calculated using GraphPad Prism by fitting fluorescence millipolarization (mP=P·10^−3, where P is polarization) as a function of Sxph concentration using the equation: P={(Pbound−Pfree) [Sxph]/(Kd+[Sxph])}+Pfree, where P is the polarization measured at a given Sxph concentration, Pfree is the […], and Pbound is the maximum polarization of Sxph bound by F-STX (Rossi and Taylor, Hansen et al.).

Molecule | […]G (kcal mol^−1) relative to wild-type RcSxph [kcal/mol]
B1 | 4.30
B2 | 3.60
B3 | 3.15
B4 | 3.60
B5 | 0.37
B6 | 1.11
